Experimental data as given in patent US20030181369A1 (published 2003).

Biological target: T1, T7-epitope tagged bovine β1 integrin (bovine, UniProt P53712 21-798)
T1 construct: mature; Expressed in HEK293 cells and detected in lysates with anti-T7 antibody; also called T7-β1 integrin; T7 tagged β1; not shown: le
Assay: co-immunoprecipitation with anti-HSV antibody, anti-T7 Western blot (FIG. 5B panel c)
Description: 16K derivatives were cotransfected with T7 tagged β1 integrin into HEK293 cells. Integrin expression was assessed by Western blot analysis of RIPA lysates probed with anti-T7 antibody (panel a), and glycosylation by GlcNAc-TV was assessed by incubating extracts with agarose-conjugated L-PHA and analysing recovered proteins with anti-T7 antibody (panel b). Proteins interacting with 16K or 16K mutants were isolated by immunoprecipitation using anti-HSV antibody followed by agarose conjugated protein A, and recovery of T7-β1 integrin monitored by Western blot analysis using anti-T7 antibody (panel c).
RIPA lysates made from HEK293 cells transiently transfected with pXJ41-T7-β1 were resolved on 8% SDS-PAGE, transferred to nitrocellulose, and probed with anti-T7 antibody. Alternatively, lysates were treated with endoglycosidase H (2 units) or glycopeptidase F and incubated at 37° C. overnight in the manufacturer's (Calbiochem) recommended buffers. Agarose conjugated L-PHA and ConA were used to isolate β1-6 branched and high mannose forms of β1 integrin respectively. Lysates made from cells co-transfected with HSV tagged 16K were treated with anti-HSV antibody and agarose-conjugated protein A and recovered complexes were analysed by Western blot as above. […]

T1 sequence (P53712 21-798): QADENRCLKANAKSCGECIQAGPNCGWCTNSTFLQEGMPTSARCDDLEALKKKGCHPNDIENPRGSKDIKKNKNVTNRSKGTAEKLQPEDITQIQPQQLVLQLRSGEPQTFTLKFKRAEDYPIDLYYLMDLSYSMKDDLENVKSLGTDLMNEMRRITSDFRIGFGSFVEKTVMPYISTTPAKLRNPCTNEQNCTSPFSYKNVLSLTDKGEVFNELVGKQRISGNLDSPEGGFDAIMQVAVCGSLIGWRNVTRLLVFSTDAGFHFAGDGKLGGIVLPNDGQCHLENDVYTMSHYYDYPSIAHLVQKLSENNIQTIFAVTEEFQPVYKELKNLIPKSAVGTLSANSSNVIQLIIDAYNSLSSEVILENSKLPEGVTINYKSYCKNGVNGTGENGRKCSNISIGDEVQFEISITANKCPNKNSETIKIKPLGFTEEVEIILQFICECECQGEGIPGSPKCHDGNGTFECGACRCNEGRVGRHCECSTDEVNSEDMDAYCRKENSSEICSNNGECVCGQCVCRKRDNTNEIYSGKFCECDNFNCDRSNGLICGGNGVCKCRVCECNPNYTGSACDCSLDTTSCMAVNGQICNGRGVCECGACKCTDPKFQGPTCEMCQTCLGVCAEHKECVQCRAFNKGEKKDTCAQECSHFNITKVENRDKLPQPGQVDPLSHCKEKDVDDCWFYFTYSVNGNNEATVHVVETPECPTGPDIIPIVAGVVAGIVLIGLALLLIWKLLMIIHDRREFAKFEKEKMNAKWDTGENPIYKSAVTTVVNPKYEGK

Binder | binding result
HSV-tagged 16K derivative α2 (helix 2, amino acids 35-88) (other, not shown: small tags and cut ends) AKSGTGIAAMSVMRPEQIMKSIIPVVMAGIIAIYGLVVAVLIANSLNDDISLYK | no binding
GIVGDAGVRGTAQQPRLFVGMILILIFAEVLGLYGLIVALILSTK (other, not shown: small tags and cut ends) [HSV-tagged 16K derivative α4 (helix 4, amino acids 111-156)] | no binding
